The values below come from patent US20190359687A1 (Bayer, published 2019).

Assay [1] addresses T1, Cynomolgus monkey glycophorin A on Cynomolgus monkey red blood cells (Cynomolgus monkey).
T1 construct: whole, on cells; also called Cyno RBC; Cyno GPA
The experiment in a line: FACS, RBC Cy01.
Method: (§1) The binding of the humanized variants to intact red blood cells (RBC) from humans (Hu01 to 03; 3 individuals), Rhesus monkey (Rh01 to 03; 3 individuals) and Cynomolgus monkey (Cy01 to 02; 2 individuals) was measured by fluorescence activated cell sorting (FACS).

Assay [2] has as its target T1, Cynomolgus monkey glycophorin A on …. Put plainly: FACS, RBC Cy02.
Method: as §1
The target in assay [3] is T2, Rhesus monkey glycophorin A on Rhesus monkey red blood cells (Rhesus monkey, UniProt A0A1D5Q349 20-150).
T2 construct: whole, on cells; also called Rhesus RBC; monkey GPA
T2 sequence: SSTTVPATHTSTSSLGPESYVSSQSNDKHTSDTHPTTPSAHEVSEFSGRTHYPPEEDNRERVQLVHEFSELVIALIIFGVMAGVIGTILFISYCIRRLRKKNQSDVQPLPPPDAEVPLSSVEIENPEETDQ
The experiment in a line: FACS, RBC Rh01.
Method: as §1

In assay [4] the target is T3, human glycophorin A in the red blood cell membrane (human, UniProt P02724 20-150).
T3 construct: whole, on cells; used for intact RBC, isolated RBC membranes and transfected cells; the assay field tells which; also called GPA; hGPA
T3 sequence (looked up): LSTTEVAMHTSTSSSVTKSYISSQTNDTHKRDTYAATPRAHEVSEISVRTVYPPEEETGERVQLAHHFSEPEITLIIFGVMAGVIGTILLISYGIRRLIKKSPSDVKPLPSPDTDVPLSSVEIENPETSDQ
Put plainly: FACS, RBC Hu03.
Method: as §1

The target in assay [5] is T2, Rhesus monkey glycophorin A on Rhesus …. Put plainly: FACS, RBC Rh02.
For assay [6], the target named is T3, human glycophorin A in the red blood …. Put plainly: FACS, RBC Hu01.
Method: as §1
For assay [7] the target is unchanged. The experiment in a line: FACS, RBC Hu02.
Method: as §1
The target of assay [8] is T2, Rhesus monkey glycophorin A on Rhesus …. Put plainly: FACS, RBC Rh03.
Method: as §1
Assay [9] has as its target T3, human glycophorin A in the red blood …. The experiment in a line: FACS, IgG.
Method: as §1

Numbering of substitutions follows the chain as printed.

B1: Hu6C12-1 (antibody, V domains shown)
VH: EVQLVQSGAEVKKPGASVKVSCKASGYTFTTYTIHWVRQAPGQGLEWMGYINPSSDYTRYNPKFKDRVTMTTDTSTSTAYMELRSLRSDDTAVYYCQRGTRDYWGQGTTVTVSS
VL: DIQLTQSPSFLSASVGDRVTITCSAASSVSYIYWYQQKPGKAPKLLIYSTSTLPSGVPSRFSGSGSGTEFTLTISSLQPEDFATYYCHQRNSFPFTFGQGTKLEIK
notes: IgG format; VH.1a + Vk.1
B1: the fluorescence intensity is 742 in assay [1]; 801 in assay [2]; 1190 in assay [3]; 2 in [4]; 1120 in assay [5]; 3 in assay [6]. The fluorescence intensity in assay [7] is 3; in [8] it was 1140. Further, the binding result in [9] is recorded as “no binding”.

B2: Hu6C12-9 (antibody, V domains shown)
VH: B1 VH with Q97A
VL: B1 VL with F70Y
notes: IgG format; VH.1 + Vk.1a
Consider B2, for which the fluorescence intensity in assay [1] came out at 680; in assay [2], 756; in assay [3], 1060; in assay [4], 2; in assay [5] it was 1060; in assay [6], 3. Moreover, the fluorescence intensity in assay [7] was 3; in assay [8], 1050. Also, the binding result in assay [9] is reported as “no binding”.

B3: Hu6C12-10 (antibody, V domains shown)
VH: B1 VH
VL: B1 VL with F70Y
notes: IgG format; VH.1a + Vk.1a
With B3, the fluorescence intensity in assay [1] is 872; in assay [2], 973; in [3] it was 1410; in assay [4] it was 2; in [5], 1310; in [6] it was 3. In addition, the fluorescence intensity in assay [7] is 3; in assay [8], 1310. Further, the binding result in assay [9] is “no binding”.

B4: Hu6C12-17 (antibody, V domains shown)
VH: B1 VH with Q97A
VL: B1 VL with Y35F, F70Y
notes: IgG format; VH.1 + Vk.1b
Turning to B4, the fluorescence intensity came to 104 in [1]; 127 in assay [2]; 2 in assay [4]; 3 in assay [6]; 3 in [7]. Besides, the binding result in [9] is “no binding”.

B5: Hu6C12-4 (antibody, V domains shown)
VH: B1 VH with M70L
VL: B1 VL
notes: IgG format; VH.1d + Vk.1
With B5, the fluorescence intensity was determined as 884 in assay [1]; 989 in assay [2]; 1070 in assay [3]; 2 in [4]; 1320 in assay [5]; 3 in assay [6]. Besides, the fluorescence intensity in assay [7] came out at 3; in assay [8], 1340. In addition, the binding result in [9] was “no binding”.

B6: Hu6C12-13 (antibody, V domains shown)
VH: B1 VH with M70L
VL: B1 VL with F70Y
notes: IgG format; VH.1d + Vk.1a
With B6, the fluorescence intensity is 824 in assay [1]; 937 in assay [2]; 1370 in [3]; 2 in assay [4]; 1280 in assay [5]; 3 in [6]. Besides, the fluorescence intensity in assay [7] turned out to be 3; in [8], 1270. For the same molecule, the binding result in assay [9] is reported as “no binding”.

B7: Hu6C12-18 (antibody, V domains shown)
VH: B1 VH
VL: B1 VL with Y35F, F70Y
notes: IgG format; VH.1a + Vk.1b
Regarding B7, the fluorescence intensity amounted to 741 in assay [1]; 876 in assay [2]; 2 in assay [4]; 3 in assay [6]; 3 in assay [7]. Further, the binding result in assay [9] was “no binding”.
